Test results: patent publication US20220229068A1, “DETECTION OF PROTEIN TO PROTEIN INTERACTIONS” (THE GOVERNING COUNCIL OF THE UNIVERSITY OF TORONTO, priority 2019, published 2022)
Values belong to the substance of their own block, whether it stands above or below them.

Key:
[1] = biological target: T1, PDPK1 (prey, CIC format) (human) (UniProt O15530); test: SIMPL ELISA, bait-IN/prey-CIC
T1 sequence (looked up): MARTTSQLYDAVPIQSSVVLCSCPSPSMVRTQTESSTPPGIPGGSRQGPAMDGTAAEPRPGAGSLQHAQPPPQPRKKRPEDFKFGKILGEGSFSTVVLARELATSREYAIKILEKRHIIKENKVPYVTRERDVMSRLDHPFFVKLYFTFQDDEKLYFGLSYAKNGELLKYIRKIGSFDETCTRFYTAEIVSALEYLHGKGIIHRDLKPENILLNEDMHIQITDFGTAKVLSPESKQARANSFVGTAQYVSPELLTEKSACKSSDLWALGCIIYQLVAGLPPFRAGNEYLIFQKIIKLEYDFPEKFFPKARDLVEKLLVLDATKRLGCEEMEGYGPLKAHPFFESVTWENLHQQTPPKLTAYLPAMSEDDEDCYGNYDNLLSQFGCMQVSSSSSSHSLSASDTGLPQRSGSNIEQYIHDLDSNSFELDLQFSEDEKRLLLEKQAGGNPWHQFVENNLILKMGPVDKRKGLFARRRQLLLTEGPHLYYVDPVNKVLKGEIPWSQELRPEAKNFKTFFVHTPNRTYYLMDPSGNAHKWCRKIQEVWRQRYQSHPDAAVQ

[2] = biological target: T2, PEX19 (prey, CIC format) (human) (UniProt P40855); test: SIMPL ELISA, bait-IN/prey-CIC
T2 sequence (looked up): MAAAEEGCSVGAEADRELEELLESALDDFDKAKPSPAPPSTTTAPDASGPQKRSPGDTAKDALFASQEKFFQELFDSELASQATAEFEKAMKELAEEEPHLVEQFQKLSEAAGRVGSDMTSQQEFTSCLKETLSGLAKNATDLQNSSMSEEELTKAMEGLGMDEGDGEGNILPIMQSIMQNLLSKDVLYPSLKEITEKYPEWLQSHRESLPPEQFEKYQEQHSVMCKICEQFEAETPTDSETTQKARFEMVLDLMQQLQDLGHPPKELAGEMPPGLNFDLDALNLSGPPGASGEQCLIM

[3] = biological target: TCL1A (prey, CIC format) (human) (UniProt P56279); test: SIMPL ELISA, bait-IN/prey-CIC
[4] = biological target: CYB-1 (C. elegans prey, CIC format) (C. elegans) (UniProt Q10653); test: SIMPL ELISA, C. elegans lysate, IN/CIC; ratio of spliced signal to total signal
[5] = biological target: T3, SOC-2 (C. elegans prey, IC format) (C. elegans) (UniProt Q22875); test: SIMPL ELISA, C. elegans lysate, IN/IC; ratio of spliced signal to total signal
T3 sequence (looked up): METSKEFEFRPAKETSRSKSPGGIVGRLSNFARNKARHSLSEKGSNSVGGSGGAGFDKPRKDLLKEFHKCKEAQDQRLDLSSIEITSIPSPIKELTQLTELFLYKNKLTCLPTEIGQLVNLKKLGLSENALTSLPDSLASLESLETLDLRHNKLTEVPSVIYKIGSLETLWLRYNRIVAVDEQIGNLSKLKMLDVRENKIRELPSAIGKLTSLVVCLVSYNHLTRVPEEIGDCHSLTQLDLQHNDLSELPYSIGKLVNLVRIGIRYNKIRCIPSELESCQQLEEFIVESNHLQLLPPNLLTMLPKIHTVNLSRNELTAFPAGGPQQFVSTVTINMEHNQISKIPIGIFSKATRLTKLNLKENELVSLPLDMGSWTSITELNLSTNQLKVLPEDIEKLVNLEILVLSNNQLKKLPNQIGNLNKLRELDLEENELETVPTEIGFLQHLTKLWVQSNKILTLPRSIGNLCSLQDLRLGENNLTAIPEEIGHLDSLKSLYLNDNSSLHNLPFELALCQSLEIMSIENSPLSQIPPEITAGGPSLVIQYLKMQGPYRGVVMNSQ

[6] = biological target: T4, SOC-2 (C. elegans prey, CIC format) (C. elegans) (UniProt Q22875); test: SIMPL ELISA, C. elegans lysate, IN/CIC; ratio of spliced signal to total signal
T4 sequence (looked up): T3 sequence (looked up)

[7] = biological target: LMNB1 (prey, CIC format) (human) (UniProt P20700); test: SIMPL ELISA, bait-IN/prey-CIC
[8] = biological target: T5, PEX3 (prey, CIC format) (human) (UniProt P56589); test: SIMPL ELISA, bait-IN/prey-CIC
T5 sequence (looked up): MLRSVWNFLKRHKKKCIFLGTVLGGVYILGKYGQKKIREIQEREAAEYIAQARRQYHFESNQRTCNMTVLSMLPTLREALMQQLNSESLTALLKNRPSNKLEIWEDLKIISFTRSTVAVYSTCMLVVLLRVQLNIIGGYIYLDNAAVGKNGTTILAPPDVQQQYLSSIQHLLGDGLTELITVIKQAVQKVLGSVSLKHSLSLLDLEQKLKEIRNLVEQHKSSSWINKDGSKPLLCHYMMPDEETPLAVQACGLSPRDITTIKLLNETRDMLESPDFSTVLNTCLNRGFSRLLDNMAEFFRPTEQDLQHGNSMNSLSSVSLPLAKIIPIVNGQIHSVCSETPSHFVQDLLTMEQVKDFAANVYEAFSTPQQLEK

[9] = biological target: T6, RB1 (prey, CIC format) (human) (UniProt P06400); test: SIMPL ELISA, bait-IN/prey-CIC
T6 sequence (looked up): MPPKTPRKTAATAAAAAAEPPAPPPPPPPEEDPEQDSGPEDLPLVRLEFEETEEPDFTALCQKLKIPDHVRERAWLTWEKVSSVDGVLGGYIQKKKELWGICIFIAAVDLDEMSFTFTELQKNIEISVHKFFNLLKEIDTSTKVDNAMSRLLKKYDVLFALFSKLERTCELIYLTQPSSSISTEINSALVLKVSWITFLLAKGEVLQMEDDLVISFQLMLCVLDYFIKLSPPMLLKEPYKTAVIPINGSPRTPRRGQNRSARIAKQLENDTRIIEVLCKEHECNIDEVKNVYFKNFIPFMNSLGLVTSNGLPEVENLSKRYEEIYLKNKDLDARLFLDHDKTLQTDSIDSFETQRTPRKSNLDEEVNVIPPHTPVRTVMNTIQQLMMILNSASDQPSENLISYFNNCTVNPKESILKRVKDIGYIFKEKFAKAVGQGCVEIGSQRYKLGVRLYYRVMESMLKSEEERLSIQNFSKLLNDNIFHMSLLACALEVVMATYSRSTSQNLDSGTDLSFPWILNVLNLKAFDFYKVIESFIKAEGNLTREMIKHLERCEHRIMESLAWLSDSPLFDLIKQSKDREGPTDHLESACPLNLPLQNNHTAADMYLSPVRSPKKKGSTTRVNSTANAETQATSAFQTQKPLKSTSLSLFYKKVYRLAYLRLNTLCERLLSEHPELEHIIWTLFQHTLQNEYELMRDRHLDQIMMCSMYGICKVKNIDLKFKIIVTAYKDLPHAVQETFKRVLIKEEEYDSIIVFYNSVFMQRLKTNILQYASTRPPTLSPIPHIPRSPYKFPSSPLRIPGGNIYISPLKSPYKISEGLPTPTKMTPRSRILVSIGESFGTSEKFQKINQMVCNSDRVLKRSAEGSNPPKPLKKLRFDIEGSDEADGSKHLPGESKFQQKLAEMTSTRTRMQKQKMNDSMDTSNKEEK

[10] = biological target: NPP-1 (C. elegans prey, IC format) (C. elegans); test: SIMPL ELISA, C. elegans lysate, IN/IC; ratio of spliced signal to total signal
[11] = biological target: HSP90AA1 (prey, CIC format) (human) (UniProt P07900); test: SIMPL ELISA, bait-IN/prey-CIC
[12] = biological target: RAD23A (prey, CIC format) (human) (UniProt P54725); test: SIMPL ELISA, bait-IN/prey-CIC
[13] = biological target: RELA (prey, CIC format) (human) (UniProt Q04206); test: SIMPL ELISA, bait-IN/prey-CIC
[14] = biological target: EZR (prey, CIC format) (human) (UniProt P15311); test: SIMPL ELISA, bait-IN/prey-CIC
[15] = biological target: RACK1 (prey, CIC format) (human) (UniProt P63244); test: SIMPL ELISA, bait-IN/prey-CIC
[16] = biological target: PTPN11 (prey, CIC format) (human) (UniProt Q06124); test: SIMPL ELISA, bait-IN/prey-CIC
[17] = biological target: RAN (prey, CIC format) (human) (UniProt P62826); test: SIMPL ELISA, bait-IN/prey-CIC
[18] = biological target: T7, FRS2 (prey, CIC format) (human) (UniProt Q8WU20); test: SIMPL ELISA, bait-IN/prey-CIC
T7 sequence (looked up): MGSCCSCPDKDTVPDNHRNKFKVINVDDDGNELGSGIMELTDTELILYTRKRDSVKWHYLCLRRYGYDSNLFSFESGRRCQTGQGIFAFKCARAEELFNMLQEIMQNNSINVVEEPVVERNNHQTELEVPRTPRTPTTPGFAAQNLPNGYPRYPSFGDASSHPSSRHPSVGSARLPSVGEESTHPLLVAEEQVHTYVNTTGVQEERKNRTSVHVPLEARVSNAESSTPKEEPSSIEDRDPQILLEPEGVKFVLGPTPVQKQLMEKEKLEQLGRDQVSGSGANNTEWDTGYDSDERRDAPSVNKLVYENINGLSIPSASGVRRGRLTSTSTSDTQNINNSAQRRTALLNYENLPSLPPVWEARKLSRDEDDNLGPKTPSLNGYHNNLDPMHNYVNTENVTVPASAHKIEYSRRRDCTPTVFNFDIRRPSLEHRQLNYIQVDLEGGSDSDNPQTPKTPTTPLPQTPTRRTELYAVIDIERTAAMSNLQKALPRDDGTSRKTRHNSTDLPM

[19] = biological target: T8, NCBP2 (prey, CIC format) (human) (UniProt P52298); test: SIMPL ELISA, bait-IN/prey-CIC
T8 sequence (looked up): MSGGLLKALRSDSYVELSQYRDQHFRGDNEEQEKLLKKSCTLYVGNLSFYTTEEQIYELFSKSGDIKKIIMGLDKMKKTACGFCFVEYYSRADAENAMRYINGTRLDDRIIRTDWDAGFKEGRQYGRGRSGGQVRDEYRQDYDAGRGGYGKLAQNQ

[20] = biological target: F44B9.8 (C. elegans prey, IC format) (C. elegans) (UniProt P34429); test: SIMPL ELISA, C. elegans lysate, IN/IC; ratio of spliced signal to total signal
[21] = biological target: ARHGAP1 (prey, CIC format) (human) (UniProt Q07960); test: SIMPL ELISA, bait-IN/prey-CIC
[22] = biological target: CCNA1 (prey, CIC format) (human) (UniProt P78396); test: SIMPL ELISA, bait-IN/prey-CIC
[23] = biological target: ZBTB16 (prey, CIC format) (human) (UniProt Q05516); test: SIMPL ELISA, bait-IN/prey-CIC
[24] = biological target: T9, ARFIP2 (prey, CIC format) (human) (UniProt P53365); test: SIMPL ELISA, bait-IN/prey-CIC
T9 sequence (looked up): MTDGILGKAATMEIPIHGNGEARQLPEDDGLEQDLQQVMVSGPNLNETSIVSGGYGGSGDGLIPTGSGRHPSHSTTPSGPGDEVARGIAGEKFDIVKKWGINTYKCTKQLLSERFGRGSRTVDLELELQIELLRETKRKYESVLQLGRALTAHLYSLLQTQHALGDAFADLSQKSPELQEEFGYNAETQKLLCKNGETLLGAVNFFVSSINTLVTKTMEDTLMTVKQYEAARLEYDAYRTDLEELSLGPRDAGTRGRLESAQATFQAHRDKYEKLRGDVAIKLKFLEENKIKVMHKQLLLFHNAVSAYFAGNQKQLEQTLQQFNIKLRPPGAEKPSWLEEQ

[25] = biological target: CASP9 (prey, CIC format) (human) (UniProt P55211); test: SIMPL ELISA, bait-IN/prey-CIC

Substance: CDK-1 (C. elegans bait, IN-V5/HA) (from UniProt P34556 1-332) (enzyme)
ELISA Value Replicate 1 [4]: 1.1
ELISA Value Replicate 2 [4]: 0.8

Substance: LET-60 (C. elegans bait, IN-V5/HA) (from UniProt P22981 1-184)
ELISA Value Replicate 1 [5]: 1.2
ELISA Value Replicate 2 [5]: 0.59
ELISA Value Replicate 1 [6]: 0.79
ELISA Value Replicate 2 [6]: 0.7

Substance: NPP-11 (C. elegans bait, IN-V5/HA)
ELISA Value Replicate 1 [10]: 1.8
ELISA Value Replicate 2 [10]: 0.92

Substance: NR3C1 (bait, IN format) (from UniProt P04150 1-777) (receptor)
PLU mean [11]: 0.652
PLU mean [12]: 0.183
PLU mean [13]: 0.63

Substance: PDE4D (bait, IN format) (from UniProt Q08499 1-809) (enzyme)
PLU mean [14]: 0.137
PLU mean [15]: 0.639

Substance: RET (bait, IN format) (from UniProt P07949 29-1114) (receptor)
PLU mean [18]: 0.608
PLU mean [19]: 1.06

Substance: XIAP (bait, IN format) (from UniProt P98170 1-497)
PLU mean [24]: 0.439
PLU mean [25]: 0.811

Now from value to substance:

PLU mean [1]: 0.486
PLU mean [2]: 0.218
PLU mean [3]: 0.111
Substance: AKT1 (bait, IN format) (from UniProt P31749 1-480) (enzyme)

PLU mean [7]: 0.861
PLU mean [8]: 0.224
PLU mean [9]: 1.18
Substance: LMNA (bait, IN format) (from UniProt P02545 1-664)

PLU mean [16]: 0.539
PLU mean [17]: 0.143
Substance: PDGFRB (bait, IN format) (from UniProt P09619 33-1106) (receptor)

ELISA Value Replicate 1 [20]: 0.66
ELISA Value Replicate 2 [20]: 0.88
Substance: RFC-2 (C. elegans bait, IN-V5/HA)

PLU mean [21]: 0.486
PLU mean [22]: 0.36
PLU mean [23]: 0.691
Substance: RHOA (bait, IN format) (from UniProt P61586 1-193)
